Assay results taken from US20170362314A1 (CANCER RESEARCH TECHNOLOGY, published 2017).
One block for each binder: values may come before it.

Key:
[1] = molecular target: human CXCL12 (soluble ligand in the cell migration assays) (human, UniProt P48061-2 22-89, limits assumed); assay: cell-based or functional assay
[2] = molecular target: T1, biotinylated CXCL12 (synthesised 68 amino acid CXCL12) (human, UniProt P48061 22-89, biotinylated (site not stated)); assay: affinity constant for human CXCL12, Fab format; method not restated; comparison with WO 2008/018641; method not restated
T1 construct: also called SDF-1
T1 sequence (P48061 22-89 limits assumed): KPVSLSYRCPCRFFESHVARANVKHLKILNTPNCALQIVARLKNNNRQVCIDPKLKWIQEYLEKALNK

[3] = molecular target: T1, biotinylated CXCL12 (synthesised 68 …); assay: SPR (Biacore T100): Fab over biotinylated CXCL12 on a streptavidin chip, 1:1 Langmuir model; SPR kinetic analysis, Fab over biotinylated CXCL12 on streptavidin chip
Method: (§1) FIG. 3. Affinity measurement of anti-CXCL12 antibodies using SPR A) Sensograms of multiple concentrations of lead and parental anti-CXCL12 Fabs binding to biotinylated CXCL12 immobilised on a streptavidin chip (carboxymethylated dextran matrix pre-immobilised with streptavidin). […] The equilibrium dissociation constant (KD) of the parent clone 093_2D06 was calculated using steady state binding model due to its very fast off-rate. […] The binding constants of these antibodies were determined using two-state binding model. Biacore T100 evaluation software was used for all calculations.
(§2) The lead anti-CXCL12 antibodies and their parent clones were subjected to a full kinetic analysis to determine the improvement in binding constants after affinity maturation. The binding of the Fab antibodies to biotinylated CXCL12 immobilised on a streptavidin chip was analysed using SPR (FIG. 3). Equilibrium dissociation constants (KD) of these antibodies were determined using a binding model appropriate for each binding interaction (FIGS. 3B and C). […] Such binding profiles are generally associated with binding interactions that involve antibody (or any other analyte) induced conformational change of the ligand resulting in a two-step binding. […]

[4] = molecular target: T1, biotinylated CXCL12 (synthesised 68 …); assay: SPR (Biacore T100), Fab over biotinylated CXCL12 immobilised on a streptavidin chip, 1:1 Langmuir binding model [Continued) (panel B table]
Method: as §1, §2

[5] = molecular target: T1, biotinylated CXCL12 (synthesised 68 …); assay: SPR (Biacore T100), Fab over biotinylated CXCL12 immobilised on a streptavidin chip, 1:1 Langmuir binding model [panel B table]
Method: as §1, §2

[6] = molecular target: T1, biotinylated CXCL12 (synthesised 68 …); assay: SPR: Fab over biotinylated CXCL12 on a streptavidin chip
Method: as §1, §2

[7] = molecular target: T1, biotinylated CXCL12 (synthesised 68 …); assay: SPR (Biacore T100): Fab over biotinylated CXCL12 on a streptavidin chip, two-state binding model; SPR, two-state binding model
Method: as §1, §2

[8] = molecular target: T1, biotinylated CXCL12 (synthesised 68 …); assay: SPR: Fab over biotinylated CXCL12 on a streptavidin chip, two-state binding model
Method: as §1, §2

[9] = molecular target: T1, biotinylated CXCL12 (synthesised 68 …); assay: SPR (Biacore T100), Fab over biotinylated CXCL12 immobilised on a streptavidin chip, two-state binding model [panel C table]
Method: as §1, §2

[10] = molecular target: T1, biotinylated CXCL12 (synthesised 68 …); assay: SPR (Biacore T100), Fab over biotinylated CXCL12 immobilised on a streptavidin chip, two-state binding model [Continued) (panel C table]
Method: as §1, §2

Chain of human CXCL12 (soluble ligand in the cell migration assays) (P48061 22-89 limits assumed): as above

B2: 114_3H1 Fab (Fab, V domains shown)
VH: QVQLVQSGAEVKKPGASVKVSCKVSGYTLTELSMHWVRQAPGKGLEWMGGFDPEDGETIYAQKFQGRVTMTEDTSTDTAYMELSSLGSEDTAVYYCARRVWGSYRPNDAFDIWGQGTLVTVSS
VL: DIQMTQSPSSLSASVGDRVTITCRASQSISDYVNWYQQKPGKAPNLLMFAASTSQSGVPSRFTGSGSGTDFTLTISSLQPEDFATYFCQQSYSPPYTFGQGTKVEIKR
notes: Fab expressed from pBIOCAM-7 in HEK-293F cells, with hexa-histidine and tri-FLAG tags
- Kd [2]: 2.4 nM
- Kd [3]: 1 nM
- koff [4]: 0.00051 s⁻¹
- kon [5]: 490000 M⁻¹ s⁻¹
- fold improvement in affinity from its parent clone 093_2D06 [6]: 3800 fold

B4: 113_1H12 Fab (Fab, V domains shown)
VH: EVQLVQSGAEVKKPGASVKVSCKTSGYTFTNYGISWVRQAPGQGLEWMGWISAYNGNTNYAQKLQGRVTMTTDTSTSTAYMELRSLRSDDTAVYYCARAGGVYYDYFTDYWGQGTMVTVSS
VL: QSELTQPPSASGTPGQRVTISCSGSRSNIGSNSVNWYQQLPGTAPKLLIYNNDERPSGVPDRFSGSKSGTSASLAISGLQSEDEADYFCAAWDDSLNVGELFGGGTKLTVLG
notes: as for B2
- Kd [7]: 3.7 nM
- Kd [2]: 4.2 nM
- fold improvement in affinity following light chain shuffling (against its parent clone) [8]: 4.5 fold
- ka 1 [9]: 510000 M⁻¹ s⁻¹
- kd 1 [9]: 0.04 s⁻¹
- ka 2 [10]: 0.015 s⁻¹
- kd 2 [10]: 0.00079 s⁻¹

Results, then the binder that gave them:

- IC50, transwell migration of TOV-21G cells towards CXCL12 (further replicate experiments) [1]: 5 nM
B1: 114_3H1 IgG (human IgG2) (antibody, V domains shown)
VH: QVQLVQSGAEVKKPGASVKVSCKVSGYTLTELSMHWVRQAPGKGLEWMGGFDPEDGETIYAQKFQGRVTMTEDTSTDTAYMELSSLGSEDTAVYYCARRVWGSYRPNDAFDIWGQGTLVTVSS
VL: DIQMTQSPSSLSASVGDRVTITCRASQSISDYVNWYQQKPGKAPNLLMFAASTSQSGVPSRFTGSGSGTDFTLTISSLQPEDFATYFCQQSYSPPYTFGQGTKVEIKR

- IC50, transwell migration of TOV-21G cells towards CXCL12 (further replicate experiments) [1]: 9 nM
B3: 113_1H12 in a human IgG2 format (antibody, V domains shown)
VH: EVQLVQSGAEVKKPGASVKVSCKTSGYTFTNYGISWVRQAPGQGLEWMGWISAYNGNTNYAQKLQGRVTMTTDTSTSTAYMELRSLRSDDTAVYYCARAGGVYYDYFTDYWGQGTMVTVSS
VL: QSELTQPPSASGTPGQRVTISCSGSRSNIGSNSVNWYQQLPGTAPKLLIYNNDERPSGVPDRFSGSKSGTSASLAISGLQSEDEADYFCAAWDDSLNVGELFGGGTKLTVLG
